A short description of data set [1]: Doxorubicin complex formation and release (ultrafiltration, HPLC, SDS PAGE fluorescence). The class given is binding. Conditions: reducing conditions (DTT or GSH). As to the method: Pure wild type SP1 or Cys2 SP1 mutant (1.5 mg/ml in 20 mM Sodium Phosphate buffered, pH=6.8) were incubated overnight at room temp, with DOX 1 mg/ml in the presence of DTT (10 mM), with gentle rolling. Binding reaction was stopped by adding hydrogen peroxide (0.01%), followed by ultra filtration (using 30 kD cutoff filter) and extensive wash until follow-through become colorless. Optical density was measured at both 278 and 477 nm using nanodrop spectrophotometer. Note the dramatic effect of the reducing agent on drug binding by the Cys2 SP1, compared to the absence of effect on the wild type SP1.
FIG. 13 is a histogram illustrating the redox-dependent release of Doxorubicin by Cys2 SP1. Doxorubicin (DOX) was complexed within Cys2 SP1 as described in FIGS. 9-12 above. Release of the drug in the presence of 0, 2 and 20 mM GSH was measured by ultrafiltration and size exclusion HPLC analysis (detection at 228 and 475 nm);
FIG. 14 is a histogram illustrating the effect of oxidation on DOX complex formation by Cys2 SP1. Doxorubicin (DOX) was reacted with Cys2 SP1 and wild type SP1 as described in FIGS. 9-13 above. Oxidized protein indicates exposure to excess of H2O2 prior to treatment with GSH. DOX complex formation was measured by ultrafiltration and size exclusion HPLC analysis (detection at 228 and 475 nm). […] 1=the retentate; 2=the flow through; and 3=a DOX standard 20 μg/ml.
FIG. 17 is a photograph of a fluorescent PAGE analysis illustrating effective complex formation with DOX by Cys2 and SP1 fusion proteins. Recombinant wild type (lanes 1 and 2), Cys2 (lanes 3 and 4), and SP1 fusion proteins having additional N-terminal tumor specific peptide RGD (CRGD, SEQ ID NO:151; fusion protein is SEQ ID NO: 5)(lanes 5 and 6), or RGD in reverse order (RGDC, SEQ ID NO: 152; fusion protein is SEQ ID NO: 6)(lanes 7 and 8) were reacted with DOX to form complex as described in FIGS. 9-14 above, and then separated on SDS-PAGE with (lanes 2, 4, 6 and 8) or without (lanes 1, 3, 5 and 7) denaturation by boiling in LSB.
Ultrafiltration was used for the detection of complex formation with the water soluble ligands FA and DOX which have a distinctive absorption properties and can be determined by spectroscopic measurements. […] Several additional washing cycles remove all remaining free FA and DOX, and the ligand-SP1 complex remains in the retained fraction.
Size exclusion chromatography is a common method for separation of molecules of different sizes under mild conditions and was employed to test FA and DOX complex formation under mild conditions. SP1 is eluted from the column after 7 min and is detected at 278 nm only, and free FA is eluted from the column (TSK G3000 SWXL, Tosohaas) after 16 min and is detected at 490 nm. The SP1-FA and SP1-DOX complexes also eluted at the same time but is detected also at 490 and 475 nm, respectively. DOX/SP1 ratio is determine from the standard curve obtained in solution.
Reverse phase HPLC (RP-HPLC) analysis separates between free DOX, PXT, and SP1. Both compounds bind to the resin (C-18) and are eluted at different acetonitrile concentrations, and detected at both 278 and 225 nm (SP1), 225 nm (PTX) and 477 nm (DOX).
Pyrogen free Cys2 SP1 variant (SEQ ID NO:3) in 20 mM (Na Phosphate buffer pH-6.7) final 2 mg/ml was diluted with DOX solution (Teva, Israel) 1:2 dilution final 1 mg/ml. Where indicated, GSH was added, and the solution is mixed overnight. Where indicated (oxidized), H2O2 is added to 0.1%, buffer added to 3× volume, and the solution is sonicated (3×22 sec. 1:1 pulse/pause at 3% amplitude 0.5 min. pause, using a Vibra-Cell 750 W sonicator).

For the next data set, the system named is proteinase K or alkalase. As to the kind of experiment: Protease resistance by SDS PAGE. The class given is physicochemical. Conditions: V8 protease, similar with trypsin, subtilysine. As to the method:
Protease Susceptibility Examination of SP1—SP1 (10 μg) prepared either in V8 protease digestion buffer (125 mM Tris-HCl, pH 6.8, 10% glycerol, 0.5% SDS) or standard buffer (20 mM Tris-HCl, pH 7.5, 1 mM EDTA, 50 mM NaCl), was boiled for 2 min or not boiled prior the addition of protease (Staphylococcus aureus V8 protease, trypsin, proteinase K, Sigma Chemicals Inc., Israel). Proteases were added to a final concentration of 50 μg/ml (SP1: protease equal to 1:20, w/w). The digestion was performed at 37° C. for 1 hr. The samples were then prepared in SDS sample buffer, and boiled or not before being subjected to 17% tricine-SDS-PAGE.
SP1 is vulnerable to V8 protease or subtilysine (alcalase, Novo Industries) digestion when disassociated to its monomeric form (boiled in 0.5% SDS, or dissolved inclusion bodies). […] When the oligomer-protease mixture was further boiled in SDS sample buffer, only the SP1 monomer was observed and no peptide fragment was detected on the gel. When the same mixture was subjected to SDS-PAGE analysis without boiling, an intact complex was observed. […] Thus, whereas properly folded SP1 protein is protease resistance, unfolded protein, susceptible to protease, can be removed by protease and heat treatment (FIG. 5).

Data set [2] can be described thus: Repetitive iv injections of SP1: toxicity, liver histopathology. The class given is in vivo.
Experimental: 35 mg/Kg SP1 or PBS control were injected iv (tail vein) to C57B1 mail mice on days 0, 9, 16, 23, 37 and 53 (6 and 5 animals in the SP1 and PBS groups, respectively). 55 days past the first injection the animals were sacrificed and their livers were subjected to histopathology analysis.
The nature of data set [3]: Heat stability (no precipitation after heat treatment). Conditions: 10 min at 100° C. or 30 min at 85° C.

The text below walks through data of US20150273076A1, “SP1 POLYPEPTIDES, MODIFIED SP1 POLYPEPTIDES AND USES THEREOF” (Fulcrum SP Ltd., priority 2006, published 2015).

On to “wild type: stress related SP1 protein from aspen (Populus tremula), recombinant, SEQ ID NO:1”, for which the DOX complex formation result in data set [1] is “much lower extent”; in data set [1] (listed as wild type SP1), “no complexes are formed”. In addition, the “digestion of the intact oligomer by protease” value with proteinase K or alkalase is “unable to digest the intact oligomer”. Further, the “animals without any pathological response” value in data set [2] (35 mg/Kg iv on days 0, 9, 16, 23, 37 and 53, up to 55 days) is on record as “Four out of six”. In addition, in data set [2] (55 days past the first injection), the liver histopathology result is “appeared normal”. Further, the animals died result in data set [2] (after 17 days, unknown reason) is on record as “Two out of 6”. In addition, the Heat stability result in data set [3] is given as “+”.
